Experimental data published in US20230312724A1 (KADMON, published 2023).
Like-named read-outs stand apart in the source and are kept apart here.

Assays:
[1] = molecular target: T1, mouse B7-H4 expressed on cells (mouse, UniProt Q7TSP5 25-257); test: flow cytometry, CT26 cells expressing mB7-H4
T1 construct: also called cellular mB7-H4; mB7-H4/CT26
T1 sequence: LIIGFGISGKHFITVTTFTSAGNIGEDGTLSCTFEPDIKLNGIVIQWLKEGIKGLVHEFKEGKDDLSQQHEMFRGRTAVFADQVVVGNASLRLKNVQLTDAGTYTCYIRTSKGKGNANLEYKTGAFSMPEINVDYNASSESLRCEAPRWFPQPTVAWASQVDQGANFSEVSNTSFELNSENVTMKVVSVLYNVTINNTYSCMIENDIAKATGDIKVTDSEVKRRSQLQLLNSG

[2] = molecular target: T2, IgV domain of mouse B7-H4-Fc (mouse; human); test: ELISA, coated mB7-H4 IgV domain
T2 construct: also called mB7-H4 IgV domain

[3] = molecular target: T3, human B7-H4 expressed on cells (human, UniProt Q7Z7D3 25-282); test: flow cytometry, SK-BR-3 cells
T3 construct: Transfected CHO cells or tumor cell lines that carry hB7-H4; also called cellular hB7-H4
T3 sequence: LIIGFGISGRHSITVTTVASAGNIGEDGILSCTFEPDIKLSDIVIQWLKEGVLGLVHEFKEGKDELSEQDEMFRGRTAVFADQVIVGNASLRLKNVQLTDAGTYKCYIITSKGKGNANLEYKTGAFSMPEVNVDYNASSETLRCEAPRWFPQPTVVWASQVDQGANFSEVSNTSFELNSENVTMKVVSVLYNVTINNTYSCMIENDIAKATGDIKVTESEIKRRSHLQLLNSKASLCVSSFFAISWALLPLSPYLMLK
Procedure, shortened: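 Serially diluted antibodies or fusion proteins were incubated with cells at 1×10⁶ cells/ml in ice-cold FACS buffer for 1 h at 4 °C. After three washes, bound protein was detected with a 1:200 secondary antibody, 30 min at 4 °C in the dark, and read by flow cytometry.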

[4] = molecular target: T3, human B7-H4 expressed on cells; test: flow cytometry, SK-BR-3 cells; remark: listed apart in the source
[5] = molecular target: T4, mouse B7-H4-his (mouse, UniProt Q7TSP5 25-257); test: ELISA on coated mB7-H4-his
T4 construct: also called mB7-H4-his; mB7-H4-His; not shown: his tag
T4 sequence: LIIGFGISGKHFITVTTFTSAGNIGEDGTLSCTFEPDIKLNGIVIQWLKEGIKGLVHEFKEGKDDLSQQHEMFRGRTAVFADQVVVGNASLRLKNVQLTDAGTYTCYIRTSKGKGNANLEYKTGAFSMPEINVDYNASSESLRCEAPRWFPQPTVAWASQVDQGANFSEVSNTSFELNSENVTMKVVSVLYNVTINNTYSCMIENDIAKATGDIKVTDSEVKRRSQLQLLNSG
Protocol: (§1) About 1-2 μg/ml of human or mouse B7-H4-Fc (or his-tagged) was immobilized on ELISA plates (Immuno 2HB, Thermo scientific, cat #3455) at 4° C. overnight. After blocking the plates with 3% PBS+milk, serial diluted antibodies were added to the blocked plates and incubated at RT for 1-1.5 h. After washing the plates with PBS-T (0.05%), horse radish peroxidase (HRP)-conjugated antibody targeting the hFab was added to the plate. Signals were developed by adding 3,3′,5,5′-Tetramethylbenzidine (TMB (followed 1N of H₂SO₄ to stop the reaction. The OD at 450 nm was read by ELISA plate reader (Infinite M1000 from TECAN). GraphPad from Prism was used to plot OD450 vs. antibody concentration curve and to calculate the EC50 values.

[6] = molecular target: T5, human B7-H4-Fc (human); test: ELISA on coated hB7-H4-Fc
T5 construct: also called hB7-H4-Fc; hB7-H4 Fc
Protocol: as §1

[7] = molecular target: T6, human B7-H4-his (human, UniProt Q7Z7D3 25-259); test: SPR (Biacore)
T6 construct: also called hB7-H4-his; hB7-H4 his; not shown: his tag
T6 sequence: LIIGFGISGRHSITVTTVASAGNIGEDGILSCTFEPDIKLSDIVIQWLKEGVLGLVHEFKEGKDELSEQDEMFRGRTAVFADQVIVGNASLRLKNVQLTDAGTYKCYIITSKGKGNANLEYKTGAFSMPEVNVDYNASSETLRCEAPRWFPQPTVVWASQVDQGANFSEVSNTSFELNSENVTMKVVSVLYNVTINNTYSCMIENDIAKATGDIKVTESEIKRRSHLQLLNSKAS
Procedure, shortened: (§2)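 Ligands (human B7-H4-Fc, human B7-H4-his, mouse B7-H4-Fc) were amine-coupled to CM5 chips at 50-100 RU. Analyte was injected at 100 nM to 0.1 nM in HBS-EP, pH 7.4, at 25 °C, with 180 s association and 1000 or 1200 s dissociation. Kinetics were fitted to a 1:1 Langmuir model.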

[8] = molecular target: T5, human B7-H4-Fc; test: SPR (Biacore)
Procedure, shortened: as §2

[9] = molecular target: T7, hB7-H4 (soluble human B7-H4, construct not named) (human, UniProt Q7Z7D3 25-259, limits assumed); test: SPR (Biacore)
T7 construct: also called soluble hB7-H4
T7 sequence: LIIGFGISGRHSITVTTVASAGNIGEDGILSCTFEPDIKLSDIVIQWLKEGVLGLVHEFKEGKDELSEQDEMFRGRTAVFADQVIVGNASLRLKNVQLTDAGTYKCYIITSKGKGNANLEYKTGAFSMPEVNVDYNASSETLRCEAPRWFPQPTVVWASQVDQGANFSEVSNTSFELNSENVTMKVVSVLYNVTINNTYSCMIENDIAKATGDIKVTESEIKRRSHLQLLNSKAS
Procedure, shortened: as §2

[10] = molecular target: T8, mouse B7-H4-Fc (mouse; human); test: ELISA on coated mB7-H4-Fc
T8 construct: also called mB7-H4-Fc; mB7-H4-hFc
Protocol: as §1

[11] = molecular target: T6, human B7-H4-his; test: ELISA on coated hB7-H4-his
Protocol: as §1

[12] = molecular target: T7, hB7-H4 (soluble human B7-H4, construct …); test: ELISA, hB7-H4
Procedure, shortened: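 Antibody titrations were applied for 1-1.5 h at RT to wells precoated (4° C overnight) with roughly 1-2 μg/ml human or mouse B7-H4-Fc or his-tagged protein, then blocked with 3% PBS+milk. Detection used HRP anti-hFab and TMB at OD450; EC50 from the curve.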

[13] = molecular target: T3, human B7-H4 expressed on cells; test: flow cytometry, MX-1 cells
Protocol: (§3) Cells were harvested, washed once, and then re-suspended to the concentration of 1×10⁶ cells/ml in ice cold FACS Buffer. 25 μl of cell suspension was added to each well of a 96-well round-bottom microliter plate. Serially diluted antibodies or fusion proteins were added to each well and incubated for 1 hour at 4° C. Cells were washed three times by centrifugation at 1500 rpm for 5 minutes, and then stained with secondary antibody (1:200 dilution) for 30 min at 4° C. in the dark. Cells were washed once, re-suspended in 100 μl PBS buffer and then analyzed using Guava Flow Cytometry EasyCyte system.

[14] = molecular target: T7, hB7-H4 (soluble human B7-H4, construct …); test: ELISA, hB7-H4; remark: listed apart in the source
Protocol: as §1

[15] = molecular target: T9, IgC domain of mouse B7-H4-Fc (mouse; human); test: ELISA, coated mB7-H4 IgC domain
T9 construct: also called mB7-H4 IgC domain

[16] = molecular target: T10, IgV domain of human B7-H4-Fc (human); test: ELISA on coated IgV domain of hB7-H4
T10 construct: also called hB7-H4 IgV domain
Protocol: as §1

[17] = molecular target: T10, IgV domain of human B7-H4-Fc; test: ELISA, coated hB7-H4 IgV domain
[18] = molecular target: T3, human B7-H4 expressed on cells; test: flow cytometry, MDA-MB-468 cells
Protocol: as §3

[19] = molecular target: T7, hB7-H4 (soluble human B7-H4, construct …); test: SPR (Biacore); remark: listed apart in the source
[20] = molecular target: T11, IgC domain of human B7-H4-Fc (human); test: ELISA, coated hB7-H4 IgC domain
T11 construct: also called hB7-H4 IgC domain
T11 sequence (chain, as listed by the source): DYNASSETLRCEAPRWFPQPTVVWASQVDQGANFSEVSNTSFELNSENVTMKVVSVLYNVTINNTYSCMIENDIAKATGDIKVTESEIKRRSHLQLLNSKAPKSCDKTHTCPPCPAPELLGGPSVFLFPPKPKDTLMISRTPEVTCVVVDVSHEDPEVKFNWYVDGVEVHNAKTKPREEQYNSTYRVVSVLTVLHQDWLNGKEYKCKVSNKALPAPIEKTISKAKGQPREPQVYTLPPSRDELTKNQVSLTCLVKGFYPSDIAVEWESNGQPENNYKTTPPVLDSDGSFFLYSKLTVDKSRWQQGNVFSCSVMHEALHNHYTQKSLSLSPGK

T10 sequence (chain, as listed by the source): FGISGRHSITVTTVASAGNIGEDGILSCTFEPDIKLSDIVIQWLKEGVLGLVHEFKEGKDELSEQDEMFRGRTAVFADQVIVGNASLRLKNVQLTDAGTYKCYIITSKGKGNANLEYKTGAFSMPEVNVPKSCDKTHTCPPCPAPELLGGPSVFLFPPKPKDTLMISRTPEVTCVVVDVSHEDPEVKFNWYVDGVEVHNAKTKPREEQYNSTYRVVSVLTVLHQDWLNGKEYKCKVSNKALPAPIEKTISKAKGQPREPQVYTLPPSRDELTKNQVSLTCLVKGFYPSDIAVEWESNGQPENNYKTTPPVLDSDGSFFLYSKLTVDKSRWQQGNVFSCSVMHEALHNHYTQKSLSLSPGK
T5 sequence (chain, as listed by the source): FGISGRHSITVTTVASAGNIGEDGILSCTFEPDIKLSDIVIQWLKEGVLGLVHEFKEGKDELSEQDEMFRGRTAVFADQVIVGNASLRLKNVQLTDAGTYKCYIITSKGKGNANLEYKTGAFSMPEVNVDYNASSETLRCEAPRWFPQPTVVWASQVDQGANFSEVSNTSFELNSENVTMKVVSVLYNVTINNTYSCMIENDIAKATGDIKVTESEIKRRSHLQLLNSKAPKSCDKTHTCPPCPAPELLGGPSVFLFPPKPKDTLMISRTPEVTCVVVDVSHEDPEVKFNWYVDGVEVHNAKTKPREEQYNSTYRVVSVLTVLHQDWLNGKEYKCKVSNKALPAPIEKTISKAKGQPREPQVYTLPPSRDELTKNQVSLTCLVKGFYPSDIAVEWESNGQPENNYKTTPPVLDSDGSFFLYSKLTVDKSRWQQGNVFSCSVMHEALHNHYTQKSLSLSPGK
T9 sequence (chain, as listed by the source): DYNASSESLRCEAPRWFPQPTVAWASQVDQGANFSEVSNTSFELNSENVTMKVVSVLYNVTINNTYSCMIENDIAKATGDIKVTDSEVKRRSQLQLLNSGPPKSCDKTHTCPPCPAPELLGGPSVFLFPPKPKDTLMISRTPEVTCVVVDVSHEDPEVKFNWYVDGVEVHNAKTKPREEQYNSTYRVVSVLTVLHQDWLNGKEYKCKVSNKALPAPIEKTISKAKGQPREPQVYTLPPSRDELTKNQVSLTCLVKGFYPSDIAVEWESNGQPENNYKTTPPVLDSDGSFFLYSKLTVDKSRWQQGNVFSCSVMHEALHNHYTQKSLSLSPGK
T2 sequence (chain, as listed by the source): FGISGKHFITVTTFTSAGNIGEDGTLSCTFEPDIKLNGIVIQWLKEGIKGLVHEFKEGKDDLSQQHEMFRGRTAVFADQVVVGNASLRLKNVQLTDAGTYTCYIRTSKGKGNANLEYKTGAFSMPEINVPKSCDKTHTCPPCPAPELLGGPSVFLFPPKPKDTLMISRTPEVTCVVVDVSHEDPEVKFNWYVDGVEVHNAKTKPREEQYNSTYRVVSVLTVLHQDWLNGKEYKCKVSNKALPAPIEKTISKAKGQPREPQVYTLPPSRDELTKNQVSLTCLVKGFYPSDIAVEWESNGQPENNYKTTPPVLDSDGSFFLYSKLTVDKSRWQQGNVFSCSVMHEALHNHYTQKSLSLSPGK
T8 sequence (chain, as listed by the source): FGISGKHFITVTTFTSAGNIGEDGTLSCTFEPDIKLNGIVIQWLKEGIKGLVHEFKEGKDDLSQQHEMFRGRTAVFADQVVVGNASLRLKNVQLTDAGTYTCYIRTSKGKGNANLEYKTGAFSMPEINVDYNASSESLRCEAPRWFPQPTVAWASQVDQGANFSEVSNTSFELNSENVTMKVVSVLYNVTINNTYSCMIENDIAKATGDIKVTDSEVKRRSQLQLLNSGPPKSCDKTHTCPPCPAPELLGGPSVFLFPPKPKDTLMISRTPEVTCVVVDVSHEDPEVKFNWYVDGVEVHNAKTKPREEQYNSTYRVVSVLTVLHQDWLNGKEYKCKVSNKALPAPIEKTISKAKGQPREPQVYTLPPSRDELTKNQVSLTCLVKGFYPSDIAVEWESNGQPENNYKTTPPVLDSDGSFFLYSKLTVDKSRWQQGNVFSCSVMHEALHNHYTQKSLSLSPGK

binding result [1]: no binding (tested: log 2 nM (100 nM)) | binding result [2]: no binding (tested: log 1 nM (10 nM)) | EC50 [3]: 0.41 nM | EC50 [4]: 1.18 nM | binding result [5]: no binding (tested: 10 nM) | EC50 (read off the curve) [6]: ~0.07 nM | Kd [7]: 0.0155 nM | Kd [8]: 0.0433 nM | Kd [9]: 0.0385 nM | binding result [10]: no binding (tested: 10 nM) | EC50 (read off the curve) [11]: ~0.1 nM | EC50 [12]: 0.046 nM | EC50 [13]: 0.12 nM | EC50 [14]: 0.082 nM | binding result [15]: no binding (tested: log 1 nM (10 nM)) | EC50 (read off the curve) [16]: ~0.08 nM | EC50 (read off the curve) [17]: ~0.1 nM | EC50 [18]: 0.416 nM | Kd [19]: 0.0454 nM | binding result [20]: no binding (tested: log 1 nM (10 nM))
B1: 3F2/50A10 (antibody, human IgG1, V domains shown)
VH: QVQLVQSGAEVKKPGASVKVSCKASGYTFTAQYMYWVRQAPGQGLEWMGRINPTSGNTVYAQKLQGRVTMTRDTSTSTVYMELSSLRSEDTAVYYCARGINWFDPWGQGTLVTVSS
VL: DIQMTQSPSSLSASVGDRVTITCQASQDISNYINWYQQKPGKAPKLLIYAASRLQSGVPSRFSGSGSGTDFTLTISSLQPEDFATYYCQQSYRSPFTFGQGTKLEIK
